Results published in US20230295313A1.
Numbering of substitutions follows the chain as printed.

B1: mAb063 (antibody, V domains shown)
VH: EVQLQQSGPELVKPGASVKISCKASGYTFTDYYMNWVKQSHGKSLEWIGHINPNSGSTTYTEKFKDKATLTVDKSSSTAYMELRSLTSDDSAVYYCVRRIGKNWHCDVWGTGTTVTVSS
VL: DIVLTQSPASLAVSLGQRATISCRASESVNFHGTHLMHWYQQKPGQAPKLLIYAASNLDSGVPARFSGSGSETDFTLNIHPVEEEDAATYFCQQSIEDPFTFGSGTYLEIK
B2: murine mAb117 (antibody, V domains shown)
VH: QAYLQQSGAELVRPGASVKMSCKASGYTFTSYNMHWVKQSPRQGLEWVGVFYLGNGDTSYNEKFKGKATLTVDKSSSTAYMQLSSLTSEDSAVYFCARPGGYANWYFDVWGTGTTVTVSS
VL: DIVMTQSQKFMSTSVGDWVSVTCKASQNVGTEVSWYQQKPGQSPNTLIYSASYRHSGVPDRFTGSGSGTEFTLTITNVQSEDLADYFCQQYNSFPLTFGAGTKLDLK
B3: murine mAb067 (antibody, V domains shown)
VH: QVKLHQSGAELAKPGASVKMSCKASGYTFNSYWIHWVKQRPGQGLEWIGYNNPTSGYSEYNQKFTDKATLSADKSSSTAYMQLSSLTSEDSAVYYCVREYGDLFAYWGQGTLVTVSA
VL: NIVMTQSPKSMSMSVGERVTLSCKASENVGYSVSWFQQKPDQSPKLLIYGASNRYTGVPDRFTGSGSATDFTLTISTVQAEDLADYHCGQIYIYPYTFGGGTKLEIK
B4: murine mAb001 (antibody, V domains shown)
VH: QVQLQQPGAELVRPGSSVKLSCKASGYTFTSYWMDWVKQRPGQGLEWIGNIYPSDSKTHYNQKFKDKATLTVDKSSSTAYMQLSSLTSEDSAVYYCARDYYGSIGMDYWGQGTSVTVSS
VL: DIQMTQSPSSLSASLGERVSLTCRASQEISGYLSWLQQKPDGTIKRLIYAASTLDSGVPKRFSGSRSGSDYSLTISSLESEDFADYYCLQYASYPWTFGGGTKLEIK
B5: murine mAb016 (antibody, V domains shown)
VH: B4 VH with K57A, V72I, Y108S
VL: B4 VL with G31D, Y94F
B6: murine mAb048 (antibody, V domains shown)
VH: QVQLQQPGADLVKPGASVKLSCKAYGYTFFSYWMHWVRQRPGQGLEWIGMIHPNSGTTNNNEKFKSKATLTVDKSFSTAYMQLSSLTSEDSAVYYCARGYSNYDFDYWGQGTILTVSS
VL: DIKMTQFPSSMYASLGERVTITCKASQDINTYLIWIQQKPGKSPKTLIYRANRLADGVPSRFSGSGSGQDSSLTISSLEHEDMGIYYCLQYDEFPYTFGGGTKLEIK

The binders below were run against biotin-labeled human IL1RAP (human) (UniProt Q9NPH3) (assay: competition ELISA; competitor: capture mAb048 coated; biotin-hIL1RAP).
biotin-labeled human IL1RAP (human), sequence (Q9NPH3 21-367 limits assumed): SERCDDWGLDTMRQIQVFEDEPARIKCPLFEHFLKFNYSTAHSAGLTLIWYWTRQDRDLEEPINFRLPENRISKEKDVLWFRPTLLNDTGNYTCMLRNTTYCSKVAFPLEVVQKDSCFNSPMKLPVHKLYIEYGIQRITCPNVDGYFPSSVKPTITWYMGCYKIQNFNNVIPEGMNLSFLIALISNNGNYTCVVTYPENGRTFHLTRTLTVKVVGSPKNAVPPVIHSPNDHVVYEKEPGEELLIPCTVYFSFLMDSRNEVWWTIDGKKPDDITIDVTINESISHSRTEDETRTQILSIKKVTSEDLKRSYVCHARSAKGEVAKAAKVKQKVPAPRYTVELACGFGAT

| % inhibition [%] | Binder |
| --- | --- |
| 82 | B1 |
| 83 | B2 |
| 83 | B3 |
| 68 | B4 |
| 78 | B5 |
| 84 | B6 |

Each binder was assayed against biotin-labeled human IL1RAP (human) (UniProt Q9NPH3) (assay: competition ELISA; competitor: capture mAb016 coated; biotin-hIL1RAP).

| % inhibition [%] | Binder |
| --- | --- |
| 97 | B1 |
| 98 | B2 |
| 97 | B3 |
| 90 | B4 |
| 94 | B5 |
| 98 | B6 |

The binders below were run against biotin-labeled human IL1RAP (human) (UniProt Q9NPH3) (assay: competition ELISA; competitor: capture mAb117 coated; biotin-hIL1RAP).

| % inhibition [%] | Binder |
| --- | --- |
| 92 | B1 |
| 95 | B2 |
| 91 | B3 |
| 82 | B4 |
| 89 | B5 |
| 94 | B6 |

Each binder was assayed against biotin-labeled human IL1RAP (human) (UniProt Q9NPH3) (assay: competition ELISA; competitor: capture mAb001 coated; biotin-hIL1RAP).

| % inhibition [%] | Binder |
| --- | --- |
| 94 | B1 |
| 93 | B2 |
| 94 | B3 |
| 93 | B4 |
| 95 | B5 |
| 95 | B6 |

The binders below were run against biotin-labeled human IL1RAP (human) (UniProt Q9NPH3) (assay: competition ELISA; competitor: capture mAb063 coated; biotin-hIL1RAP).

| % inhibition [%] | Binder |
| --- | --- |
| 96 | B1 |
| 87 | B2 |
| 72 | B3 |
| 75 | B4 |
| 80 | B5 |
| 86 | B6 |

What follows are binders tested against biotin-labeled human IL1RAP (human) (UniProt Q9NPH3) (assay: competition ELISA; competitor: capture mAb067 coated; biotin-hIL1RAP).

| % inhibition [%] | Binder |
| --- | --- |
| 87 | B1 |
| 86 | B2 |
| 87 | B3 |
| 76 | B4 |
| 76 | B5 |
| 90 | B6 |
